Laboratory results taken from patent publication US20070166308A1 (Amgen, published 2007).

T1: VCAM (Panvera) (UniProt P19320 25-698, limits assumed)
T1 sequence (looked up): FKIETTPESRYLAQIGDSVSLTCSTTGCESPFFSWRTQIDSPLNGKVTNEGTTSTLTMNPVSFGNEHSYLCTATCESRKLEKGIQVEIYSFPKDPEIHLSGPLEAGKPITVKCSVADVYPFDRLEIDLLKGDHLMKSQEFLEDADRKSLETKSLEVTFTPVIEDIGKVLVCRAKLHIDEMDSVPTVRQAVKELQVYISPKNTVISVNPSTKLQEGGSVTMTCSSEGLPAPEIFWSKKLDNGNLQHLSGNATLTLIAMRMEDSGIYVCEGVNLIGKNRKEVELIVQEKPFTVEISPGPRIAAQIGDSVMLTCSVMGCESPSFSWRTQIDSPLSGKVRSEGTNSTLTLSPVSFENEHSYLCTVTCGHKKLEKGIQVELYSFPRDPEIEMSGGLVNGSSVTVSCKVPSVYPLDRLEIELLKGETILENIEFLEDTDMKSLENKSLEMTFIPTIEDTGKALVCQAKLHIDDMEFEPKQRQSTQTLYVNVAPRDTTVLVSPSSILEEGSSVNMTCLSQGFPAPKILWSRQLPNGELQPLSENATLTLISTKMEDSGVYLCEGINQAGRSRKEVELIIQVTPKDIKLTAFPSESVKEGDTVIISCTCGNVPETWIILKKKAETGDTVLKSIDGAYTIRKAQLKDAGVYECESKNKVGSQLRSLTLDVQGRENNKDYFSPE


Columns and labels:
VCAM (Panvera) = target: T1, VCAM (Panvera); test: cell-based or functional assay
[1] = target: Fibronectin cell binding fragment (110 Kd, Europa Bioproducts Ltd, Cat. No. UBF4215-18) (UniProt P02751-1 722-1635); test: cell-based or functional assay
Sequence of Fibronectin cell binding fragment (110 Kd, Europa Bioproducts Ltd, Cat. No. UBF4215-18) (P02751 other isoform, or with tags, fused parts or gaps limits assumed): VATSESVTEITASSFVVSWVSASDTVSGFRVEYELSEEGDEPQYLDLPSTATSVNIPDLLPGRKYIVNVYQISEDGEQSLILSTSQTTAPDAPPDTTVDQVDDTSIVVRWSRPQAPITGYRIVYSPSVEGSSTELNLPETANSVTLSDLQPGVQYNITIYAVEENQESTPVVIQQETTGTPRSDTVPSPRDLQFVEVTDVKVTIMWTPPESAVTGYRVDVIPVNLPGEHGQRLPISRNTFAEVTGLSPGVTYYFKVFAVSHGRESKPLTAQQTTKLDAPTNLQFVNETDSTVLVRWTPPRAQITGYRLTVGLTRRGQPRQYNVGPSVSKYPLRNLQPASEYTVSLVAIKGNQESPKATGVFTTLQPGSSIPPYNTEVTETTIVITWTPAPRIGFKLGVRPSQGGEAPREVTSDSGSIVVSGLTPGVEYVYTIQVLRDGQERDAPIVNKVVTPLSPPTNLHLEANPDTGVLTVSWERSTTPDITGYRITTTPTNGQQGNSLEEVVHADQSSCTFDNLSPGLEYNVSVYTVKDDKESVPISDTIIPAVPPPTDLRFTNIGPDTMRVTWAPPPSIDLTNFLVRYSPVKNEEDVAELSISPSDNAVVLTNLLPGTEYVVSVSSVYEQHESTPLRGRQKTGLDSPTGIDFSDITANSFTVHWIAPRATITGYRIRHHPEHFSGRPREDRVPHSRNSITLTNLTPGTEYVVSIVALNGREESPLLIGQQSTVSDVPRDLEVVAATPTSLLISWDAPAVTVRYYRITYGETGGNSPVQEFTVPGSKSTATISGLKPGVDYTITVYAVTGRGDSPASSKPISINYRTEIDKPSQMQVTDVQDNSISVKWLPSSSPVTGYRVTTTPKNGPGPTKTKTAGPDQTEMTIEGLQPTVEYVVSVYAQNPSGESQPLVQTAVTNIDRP

[2] = target: T2, MAdCAM-IgG1 Fc fusion protein (human); test: adhesion of calcein-loaded α4β7+ JY cells to coated MAdCAM-IgG1 Fc, blocked by antibody
T2 construct: Expressed in CHO-DHFR cells; also called MAdCAM-IgFc; soluble MAdCAM (in the sandwich ELISA)
T2 sequence (chain, as listed by the source limits assumed): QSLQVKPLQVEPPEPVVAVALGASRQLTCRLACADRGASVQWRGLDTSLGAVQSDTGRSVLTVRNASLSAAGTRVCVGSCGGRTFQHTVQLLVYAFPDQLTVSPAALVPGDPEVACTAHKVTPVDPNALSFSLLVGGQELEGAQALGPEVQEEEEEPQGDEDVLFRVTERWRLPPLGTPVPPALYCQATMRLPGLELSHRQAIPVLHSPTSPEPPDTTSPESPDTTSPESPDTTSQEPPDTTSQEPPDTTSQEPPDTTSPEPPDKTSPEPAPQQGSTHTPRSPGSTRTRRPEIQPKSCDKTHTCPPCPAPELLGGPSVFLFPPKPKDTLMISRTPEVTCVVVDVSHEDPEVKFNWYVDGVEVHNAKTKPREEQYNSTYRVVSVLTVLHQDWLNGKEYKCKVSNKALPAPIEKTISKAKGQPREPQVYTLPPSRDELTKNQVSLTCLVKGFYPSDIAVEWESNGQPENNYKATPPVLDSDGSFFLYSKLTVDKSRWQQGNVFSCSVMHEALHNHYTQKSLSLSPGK
Description: (§1) The cells were washed twice with RPMI 1640 media (Gibco) containing 2 mM L-glutamine (Gibco) by centrifugation (240 g), resuspending the final cell pellet at 2×10⁶ cells/mL in RPMI 1640 for Calcein AM loading. Calcein AM (Molecular Probes #C-3099) was added to the cells as a 1:200 dilution in DMSO (ca. final concentration 5 μM) and the cells protected from light during the course of the incubation (37° C. for 30 min). During this cell incubation step the antibodies to be tested, were diluted as follows: for single dose testing, the antibodies were made up to 3 μg/mL (1 μg/mL final) in 0.1 mg/mL BSA (Sigma#A3059) in PBS; for full IC₅₀ curves, the antibodies were diluted in 0.1 mg/mL BSA/PBS, with 3 μg/mL (1 μg/mL final) being the top concentration, then doubling dilutions (1:2 ratio) across the plate. The final well of the row was used for determining total binding, so 0.1 mg/ml BSA in PBS was used.
After blocking, the plate contents were flicked out and 50 μL of antibodies/controls were added to each well and the plate incubated at 37° C. for 20 min. During this time, Calcein-loaded JY cells were washed once with RPMI 1640 media containing 10% fetal bovine serum and once with 1 mg/mL BSA/PBS by centrifugation, resuspending the final cell pellet to 1×10⁶/mL in 1 mg/mL BSA/PBS. 100 μL of cells were added to each well of the U bottomed plate, the plate sealed, briefly centrifuged (1000 rpm for 2 min) and the plate then incubated at 37° C. for 45 min. At the end of this time, the plates were washed with a Skatron plate washer and fluorescence measured using a Wallac Victor² 1420 Multilabel Reader (excitation λ 485 nm, emission λ 535 nm count from top, 8 mm from bottom of plate, for 0.1 sec with normal emission aperture). For each antibody concentration, percent adhesion was expressed as a percentage of maximal fluorescence response in the absence of any antibody minus fluorescence associated with non-specific binding. […]

[3] = target: T2, MAdCAM-IgG1 Fc fusion protein; test: MAdCAM-IgG1 Fc fusion / JY cell adhesion assay, mean IC50
Description: as §1
After blocking, the plate contents were flicked out and 50 μL of antibodies/controls were added to each well and the plate incubated at 37° C. for 20 min. During this time, Calcein-loaded JY cells were washed once with RPMI 1640 media containing 10% fetal bovine serum and once with 1 mg/mL BSA/PBS by centrifugation, resuspending the final cell pellet to 1×10⁶/mL in 1 mg/mL BSA/PBS. 100 μL of cells were added to each well of the U bottomed plate, the plate sealed, briefly centrifuged (1000 rpm for 2 min) and the plate then incubated at 37° C. for 45 min. At the end of this time, the plates were washed with a Skatron plate washer and fluorescence measured using a Wallac Victor² 1420 Multilabel Reader (excitation λ 485 nm, emission λ 535 nm count from top, 8 mm from bottom of plate, for 0.1 sec with normal emission aperture). For each antibody concentration, percent adhesion was expressed as a percentage of maximal fluorescence response in the absence of any antibody minus fluorescence associated with non-specific binding. The IC₅₀ value is defined as the anti-MAdCAM antibody concentration at which the adhesion response is decreased to 50% of the response in the absence of anti-MAdCAM antibody.

inhibition of adhesion of α4β1+/α5β1+ Jurkat T-cells to coated VCAM (VCAM (Panvera)) | inhibition of adhesion of α4β1+/α5β1+ Jurkat T-cells to coated Fibronectin cell binding fragment [1] | IC50 [2] | IC50 [3] | Binder
> 100 fold | > 100 fold | < 0.1 µg/mL |  | anti-MAdCAM monoclonal antibody 9.8.2 (antibody, human IgG4, kappa, V domains shown, fully human IgG4 kappa from hybridoma; signal peptide left out; kappa chain stained positive for glycosylation) VH: QVQLVESGGGVVQPGRSLRLSCAASGFTFSSYGMHWVRQAPGKGLEWVAVIWYDGSNEYYADSVKGRFTISRDNSKNTLYLQMNSLRAEDTAVYYCARGAYHFAYWGQGTLVTVSS VL: DIQMTQSPSSLSASVGDRVTITCQASQDISNYLNWYQQKPGKAPKLLIYDASNLETGVPSRFSGSGSGTDFTFTISSLQPEDIATYSCQHSDNLSITFGQGTRLEIKR
> 100 fold | > 100 fold | < 0.1 µg/mL | 0.021 µg/mL | anti-MAdCAM monoclonal antibody 7.26.4 (antibody, human IgG2, kappa, V domains shown, fully human IgG2 kappa from hybridoma; signal peptide left out; kappa chain glycosylation confirmed) VH: QVQLVQSGAEVKKPGASVKVSCEASGYTFTSYGIDWVRQAPGQGLEWMGWISVYSGNTNYAQKLQGRVTMSTDTSTSTAYMELRSLRSDDTAVYYCAREGSSSSGDYYYGMDVWGQGTTVTVSS VL: DIVMTQTPLSLSVTPGQPASISCKSNQSLLYSDGKTYLFWYLQKPGQPPQLLIYEVSNRFSGVPDRFSGSGSGTDFTLKISRVEAEDVGVYYCMQSIQLPWTFGQGTKVEIKR
